How the values were obtained:
[1] = molecular target: human FcγRIIB protein (his-tagged) (human) (UniProt P31994); assay: SPR (Biacore T200), his-tagged receptor captured on anti-His CM5 chip, antibody injected
[2] = molecular target: human FcγRIIIA F158 protein (his-tagged) (human) (UniProt P08637); assay: as above
[3] = molecular target: human FcγRIIIA V158 protein (his-tagged) (human) (UniProt P08637); assay: as above
[4] = molecular target: mouse FcγRIV protein (his-tagged) (mouse); assay: ratio of SPR binding to mouse FcγRIV against inhibitory mouse FcγRIIB
[5] = molecular target: mouse FcγRIIB protein (his-tagged) (mouse) (UniProt P08101); assay: SPR (Biacore T200), his-tagged receptor captured on anti-His CM5 chip, antibody injected
[6] = molecular target: mouse FcγRIV protein (his-tagged) (mouse); assay: as above

Sequence of mouse FcγRIV protein (his-tagged) (mouse) (A0A0B4 entry or part of it limits assumed): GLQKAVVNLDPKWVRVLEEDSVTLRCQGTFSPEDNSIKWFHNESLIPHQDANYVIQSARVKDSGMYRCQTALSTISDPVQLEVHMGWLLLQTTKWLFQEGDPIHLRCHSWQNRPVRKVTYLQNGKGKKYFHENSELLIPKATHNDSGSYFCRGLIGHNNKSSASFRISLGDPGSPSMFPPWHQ
Sequence of mouse FcγRIIB protein (his-tagged) (mouse) (P08101 30-210 limits assumed): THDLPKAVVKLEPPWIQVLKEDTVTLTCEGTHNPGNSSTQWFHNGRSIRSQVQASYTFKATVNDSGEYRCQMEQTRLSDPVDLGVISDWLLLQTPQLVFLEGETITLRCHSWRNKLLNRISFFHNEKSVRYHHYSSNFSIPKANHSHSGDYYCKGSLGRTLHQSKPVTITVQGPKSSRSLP
Sequence of human FcγRIIIA F158 protein (his-tagged) (human) (P08637 17-208 limits assumed): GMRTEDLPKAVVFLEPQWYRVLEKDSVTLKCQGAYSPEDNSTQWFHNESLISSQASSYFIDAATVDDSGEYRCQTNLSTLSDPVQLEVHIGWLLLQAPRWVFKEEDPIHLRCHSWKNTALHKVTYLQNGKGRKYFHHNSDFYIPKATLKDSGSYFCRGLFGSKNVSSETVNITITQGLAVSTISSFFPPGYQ
Sequence of human FcγRIIB protein (his-tagged) (human) (P31994 43-217 limits assumed): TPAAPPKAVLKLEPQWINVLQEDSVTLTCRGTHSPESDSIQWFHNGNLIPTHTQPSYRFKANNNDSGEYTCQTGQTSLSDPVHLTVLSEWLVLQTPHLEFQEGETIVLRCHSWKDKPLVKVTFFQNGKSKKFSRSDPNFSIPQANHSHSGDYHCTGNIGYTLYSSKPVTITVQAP
Sequence of human FcγRIIIA V158 protein (his-tagged) (human) (P08637 17-208 F176V limits assumed): as the sequence (P08637 17-208 limits assumed) above, with F160V counted along it

Kd [1]	Kd [2]	Kd [3]	A/I ratio (IV/IIB) [4]	Kd [5]	Kd [6]	Substance
3230 nM	2.83 nM	2.76 nM	–	–	–	Fc-enhanced anti-human CTLA-4 antibody (hIgG1.DLE) (from UniProt P01857 1-330)
–	–	–	4180	7110 nM	1.7 nM	Fc-enhanced mouse reactive anti-CTLA4 antibody (clone 9D9, mIgG2b.DLE) (from UniProt P01867 1-335)
–	–	–	95	5800 nM	61.3 nM	anti-mouse CTLA-4 antibody, clone 9D9, mouse IgG2b (unmodified)

Reference: patent publication US20260124223A1, “CANCER IMMUNOTHERAPIES” (Northwestern University, priority 2022, published 2026)
